One test addresses HLA-A*68:02. Briefly: IEDB peptide-MHC binding, purified MHC/competitive/radioactivity; filed as Kd, often an IC50 or EC50 that approximates it; ≥ and ≤ were set here for values at or beyond the usual limits of such assays.
For a further test, the target named is HLA-B*08:01. The experiment in a line: IEDB peptide-MHC binding, purified MHC/direct/fluorescence; filed as Kd, often an IC50 or EC50 that approximates it; ≥ and ≤ were set here for values at or beyond the usual limits of such assays.
In a further test the target is HLA-A*24:02. Briefly: IEDB peptide-MHC binding, purified MHC/competitive/fluorescence; ≥ and ≤ were set here for values at or beyond the usual limits of such assays.
The target of another test is HLA-A*11:01. Briefly: IEDB peptide-MHC binding, purified MHC/direct/fluorescence; filed as Kd, often an IC50 or EC50 that approximates it; ≥ and ≤ were set here for values at or beyond the usual limits of such assays.
A further test concerns the target HLA-B*27:05. Described as above.
Another test concerns the target HLA-A*01:01. The description is as above.
Another test addresses HLA-A*02:01. The description is as above.
For a further test, the target named is HLA-A*03:01. Described as above.
A further test concerns the target HLA-A*26:01. The test is described as above.
For the next test, the target named is HLA-A*69:01. The description is as above.
The next test addresses HLA-B*07:02. The description is as above.
The target in another test is HLA-B*15:01. The description is as above.
In another test the target is HLA-B*40:01. The description is as above.
The target in another test is HLA-B*58:01. The description is as above.
In a further test the target is HLA-B*18:01. The description is as above.
The next test deals with HLA-A*31:01. The description is as above. The following applies: source organism: SARS-CoV1.
Another test deals with HLA-B*51:01. Briefly: IEDB peptide-MHC binding, purified MHC/competitive/radioactivity; filed as Kd, often an IC50 or EC50 that approximates it; ≥ and ≤ were set here for values at or beyond the usual limits of such assays.
The next test has as its target HLA-B*44:02. The experiment in a line: IEDB peptide-MHC binding, purified MHC/direct/fluorescence; filed as Kd, often an IC50 or EC50 that approximates it; ≥ and ≤ were set here for values at or beyond the usual limits of such assays.
Another test has as its target HLA-B*44:03. Briefly: IEDB peptide-MHC binding, purified MHC/competitive/radioactivity; filed as Kd, often an IC50 or EC50 that approximates it; ≥ and ≤ were set here for values at or beyond the usual limits of such assays. The settings on record: source organism: Dengue virus 1 Brazil/97-11/1997.
Another test deals with HLA-B*57:01. Briefly: IEDB peptide-MHC binding, purified MHC/direct/fluorescence; filed as Kd, often an IC50 or EC50 that approximates it; ≥ and ≤ were set here for values at or beyond the usual limits of such assays. The settings on record: source organism: Giardia lamblia ATCC 50803.
The target of the next test is HLA-A*02:02. Briefly: IEDB peptide-MHC binding, purified MHC/competitive/radioactivity; filed as Kd, often an IC50 or EC50 that approximates it; ≥ and ≤ were set here for values at or beyond the usual limits of such assays. The settings on record: source organism: Lassa virus Josiah.
The next test deals with HLA-A*02:03. Described as above. The settings on record: source organism: Lassa virus Josiah.
A further test concerns the target HLA-A*02:06. Described as above. The settings on record: source organism: Lassa virus Josiah.
In the next test the target is HLA-B*53:01. The description is as above. The following applies: source organism: Dengue virus 2 Peru/IQT2913/1996.
[1] abbreviates: source organism: Dengue virus 2 Jamaica/1409/1983.
Setting [2] is: source organism: Escherichia coli.
Setting [3] is: source organism: Giardia lamblia ATCC 50803.
Setting [4] is: source organism: Dengue virus 3 Martinique/1243/1999.
Setting [5] is: source organism: Zaire ebolavirus.
Setting [6] is: source organism: Dengue virus 1 Singapore/S275/1990.

In general, Kd refers to a measure of binding affinity in units of concentration. The IC50 is the concentration that inhibits the measured activity by half. A low value points to higher potency.

As to MVSILASSLL, the Kd in the test with HLA-A*68:02 (setting [1]) was 44.7 nM.
The sequence YLKAKREKL gave a Kd in the test with HLA-B*08:01 (source organism: Coxiella burnetii Q321) of 0.143 µM.
For the sequence ANLEDLIEW, the half-maximal inhibitory concentration (IC50) in the test with HLA-A*24:02 (source organism: Vaccinia virus) is at least 235 µM.
Take EHYVRITGL: the dissociation constant Kd is at least 24300 nM in the test with HLA-A*11:01 (source organism: SARS-CoV1), 3.53 µM with HLA-B*08:01 (source organism: SARS-CoV1) and at least 46.9 µM with HLA-B*27:05 (source organism: SARS-CoV1).
As for TVANNPDDK, the Kd with HLA-A*01:01 (setting [2]) is at least 20 µM; with HLA-A*02:01 (setting [2]), at least 20 µM; with HLA-A*03:01 (setting [2]), at least 20000 nM; with HLA-A*11:01 (setting [2]), 1580 nM; with HLA-A*26:01 (setting [2]), at least 20 µM; in the test with HLA-A*69:01 (setting [2]) it was at least 20 µM. Moreover, the Kd in the test with HLA-B*07:02 (setting [2]), with HLA-B*08:01 (setting [2]), with HLA-B*15:01 (setting [2]), with HLA-B*27:05 (setting [2]), with HLA-B*40:01 (setting [2]) and in the test with HLA-B*58:01 (setting [2]) was at least 20 µM each time.
IELEHLRGL gave an equilibrium dissociation constant (Kd) in the test with HLA-B*18:01 (setting [3]) of 10 nM.
As to KLFIRQEEV, the Kd with HLA-A*02:01 (source organism: SARS-CoV1) was determined as 0.4 µM; in the test with HLA-A*31:01, 130 nM; in the test with HLA-B*08:01 (source organism: SARS-CoV1) it was 2.85 µM; with HLA-B*15:01 (source organism: SARS-CoV1), 14.9 µM.
For TVAWRTATLI, the Kd with HLA-A*68:02 (setting [4]) was found to be 61.5 nM.
For the sequence LPLPWTSGAT, the Kd with HLA-B*51:01 (setting [4]) is at least 21.4 µM.
For DTTIGEWAF, the IC50 in the test with HLA-A*24:02 (setting [5]) was 25.5 µM.
For the sequence TTHFQRALI, in the test with HLA-A*68:02 (setting [1]), the Kd is 1.3 nM.
Turning to YRSGTETKI, the IC50 with HLA-A*24:02 (source organism: Vaccinia virus Copenhagen) was at least 315 µM.
With YSAPSESEGV, in the test with HLA-A*68:02 (source organism: Dengue virus 4 Dominica/814669/1981), the dissociation constant Kd worked out at 12.2 nM.
As for LEFFLMVLL, the dissociation constant (Kd) in the test with HLA-B*18:01 (setting [6]) was 189 nM; with HLA-B*44:02 (setting [6]) it was at least 20 µM; with HLA-B*44:03 it was 15.6 µM.
DYIYLPLLK: the Kd with HLA-A*01:01 (setting [3]) was at least 20 µM; with HLA-A*02:01 (setting [3]), at least 20 µM; with HLA-A*03:01 (setting [3]), 2220 nM; with HLA-A*26:01 (setting [3]), at least 20 µM; in the test with HLA-A*69:01 (setting [3]), at least 20 µM; in the test with HLA-B*07:02 (setting [3]), at least 20 µM. Further, the Kd with HLA-B*08:01 (setting [3]), with HLA-B*15:01 (setting [3]), with HLA-B*27:05 (setting [3]), in the test with HLA-B*40:01 (setting [3]), with HLA-B*44:02 (setting [3]) and with HLA-B*58:01 (setting [3]) was at least 20 µM each time.
On to PTAPSDGGM, for which the dissociation constant Kd was at least 20 µM with HLA-B*57:01 and 9 µM in the test with HLA-B*58:01 (setting [3]).
ESGAVKYLE returned an IC50 in the test with HLA-A*24:02 (setting [5]) of at least 209 µM.
Consider ALMDCIMFDA, for which the equilibrium dissociation constant (Kd) in the test with HLA-A*02:02 was 5.25 nM; with HLA-A*02:03, 9.62 nM; with HLA-A*02:06, 33.6 nM; in the test with HLA-A*68:02 (source organism: Lassa virus Josiah) it was at least 5000 nM.
QPESNILDI: the Kd with HLA-B*51:01 (source organism: Dengue virus 2 Peru/IQT2913/1996) is at least 46.4 µM; with HLA-B*53:01, 1010 nM.
Take SSAAQRRGRI: the equilibrium dissociation constant (Kd) with HLA-A*68:02 (setting [1]) turned out to be 51 nM.
In the test with HLA-A*24:02 (source organism: Sudan ebolavirus), IYTEGLMHN registered a concentration for half-maximal inhibition (IC50) of 4.41 µM.
Regarding WTMKILIGVI, in the test with HLA-A*68:02 (setting [1]), the Kd was 184 nM.
NPHLPEKKI: the dissociation constant (Kd) with HLA-B*51:01 (setting [4]) is at least 28.8 µM.
For ELCAEAEEL, in the test with HLA-A*68:02 (source organism: Homo sapiens), the Kd worked out at 1060 nM.

These data come from the Immune Epitope Database (IEDB).
